Results from patent US10933132B2, “Combination of epigenetic factors and bispecific compounds targeting CD33 and CD3 in the treatment of myeloid leukemia” (AMGEN RESEARCH (MUNICH) GMBH, priority 2013, dated 2021).

Tested on: KG1α AML cells
Assay: G-CSF up-regulation of CD33 on AML cell lines, flow cytometry
Assay type: cell-based
Conditions: 10 days; for CD33 MFI Ratio: KG1α, untreated 16.5
Method: AML cell lines OCI-AML3 and KG1α were seeded in 24-well plates at 5×10^5 cells/ml on day 0. Cells were either left untreated (UT) or treated with 200 ng/ml (C1) or 2000 ng/ml (C2) G-CSF (Peprotech) for 10 days. G-CSF was freshly added to the cultures biweekly. On day 10, cells were harvested and analyzed for changes in CD33 surface expression by flow cytometry.

B1: G-CSF: glycoprotein cytokine that stimulates the bone marrow to produce granulocytes and stem cells (Peprotech) (protein, UniProt P09919 31-207, looked up)
Granulocyte …: TPLGPASSLPQSFLLKCLEQVRKIQGDGAALQEKLVSECATYKLCHPEELVLLGHSLGIPWAPLSSCPSQALQLAGCLSQLHSGLFLYQGLLQALEGISPELGPTLDTLQLDVADFATTIWQQMEELGMAPALQPTQGAMPAFASAFQRRAGGVLVASHLQSFLEVSYRVLRHLAQP
- upregulation of CD33 (in words) (KG1α AML cells, 200 and 2000 ng/ml): low upregulation
- CD33 MFI Ratio (C1 = 200 ng/ml G-CSF): 17.9
- CD33 MFI Ratio (C2 = 2000 ng/ml G-CSF): 19.2
